The values below come from US20120082667A1.

The target in this test is A beta oligomer prepared from synthetic A beta1-40 (HCl form), 0.1 mg/ml in PBS, incubated at 37 degrees C for one hour (UniProt P05067). In words: SPR, Biacore 3000, A beta1-40 oligomer on CM5 chip, antibody as analyte at five concentrations. For orientation: In SPR one partner is held on a chip, and binding of the other changes the refractive index at the surface.

Regarding “Anti-A beta antibody 6E10 (Covance Immuno-Technologies)”, the Kd (as a rule, the constant that tells how readily two partners part at equilibrium) was determined as 2.91 nM; the dissociation rate constant (koff) (as a rule, a measure of how fast the partners let go of each other) was 0.000168 s⁻¹; the on-rate constant (kon) (usually the second-order rate constant of association) came to 57800 M⁻¹ s⁻¹.
